These results are taken from patent US20230242658A1 (published 2023).

Experiment [1] deals with T1, human 4-1BB on CHO-K1 cells (human, UniProt Q07011 24-255).
T1 construct: whole, on cells; also called CHO-K1/hu 4-1BB; CHO-K1/hu4-1BB
Briefly: FACS, CHO-K1/hu 4-1BB cells.

Experiment [2] has as its target T2, histidine-labeled human 4-1BB protein (human, UniProt Q07011 24-186).
T2 construct: also called Human 4-1BB protein antigen (histidine-labeled); human 4-1BB protein and his tag (Acrobiosystem, #41B-H5227); not shown: histidine tag
Briefly: BLI Octet RED96, AHC sensor, his-tagged antigen. On the procedure:
(§1) Specifically, human 4-1BB protein and his tag (Acrobiosystem, #41B-H5227), or cynomolgus monkey 4-1BB protein and his tag (Acrobiosystem, #41B-052H4), were diluted to 400 nM with PBS buffer (pH 7.4) containing 0.1% (w/w) BSA and 0.02% (v/v) Tween 20, and incubated with the AHC sensor. A 40 nM 4-1BB antibody was incubated with the AHC sensor loaded with human 4-1BB protein or monkey 4-1BB protein at 30° C. for 3 min. The reaction mixture was incubated in PBS buffer (pH 7.4) containing 0.1% (v/w) BSA and 0.02% (v/v) Tween 20 at 30° C. for another 5 min The binding and separation signals between the 4-1BB antibody and 4-1BB protein were recorded by Octet Red 96 in real time. The affinity and association and dissociation constants were determined by Octet using software.
Background: BLI is a label-free optical method that tracks binding on a fibre tip over time.

The target in experiment [3] is T3, histidine-labeled cynomolgus monkey 4-1BB protein (cynomolgus monkey).
T3 construct: also called Monkey 4-1BB protein antigen (histidine-labeled); cynomolgus monkey 4-1BB protein and his tag (Acrobiosystem, #41B-052H4)
As to the kind of experiment: BLI Octet RED96, AHC sensor, his-tagged antigen. On the procedure: as §1

A word on the EC50: it is the concentration at which the effect is half-maximal. By Kd is commonly meant a measure of binding affinity in units of concentration. Broadly, the koff is the rate constant with which the complex falls apart. The kon is a measure of how fast the partners come together.

T2 sequence (Q07011 24-186): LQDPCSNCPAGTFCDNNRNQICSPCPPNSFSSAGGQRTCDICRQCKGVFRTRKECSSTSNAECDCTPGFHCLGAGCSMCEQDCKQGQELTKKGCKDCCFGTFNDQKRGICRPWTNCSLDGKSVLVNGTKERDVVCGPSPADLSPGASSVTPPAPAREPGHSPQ
T1 sequence (Q07011 24-255): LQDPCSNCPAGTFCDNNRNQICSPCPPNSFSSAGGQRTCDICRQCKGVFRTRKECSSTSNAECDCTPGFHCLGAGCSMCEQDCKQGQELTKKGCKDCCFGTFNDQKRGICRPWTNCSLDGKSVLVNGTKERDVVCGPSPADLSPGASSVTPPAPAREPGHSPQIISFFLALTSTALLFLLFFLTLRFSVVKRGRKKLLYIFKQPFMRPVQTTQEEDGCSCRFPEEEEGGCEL

B1: PR007289 (antibody, human IgG1, V domains shown)
VH: EVQLVESGGGLVKPGGSLRLSCAASGFTFSDYYMSWFRQAPGKGLEWVSYISSSGSTQDYADSVKGRFTISRDNAKNSLYLQMNSLRAEDTAVYYCAREREPVAGTLDFDNWGQGTPVTVSS
notes: HCAb, heavy chain only, human IgG1 Fc; also called R1016P145B11
Take B1: the binding result in experiment [1] is given as “binds”.

B2: PR007288 (antibody, human IgG1, V domains shown)
VH: EVQLVESGGGLVKPGGSLRLSCAASGFTFSDYYMSWFRQAPGKGLEWVSYISGSGSIIDYADSVKGRFTISRDNAKNSLYLQMNSLRAEDTAVYYCSREREAVAGTLDFDYWGQGTLVTVSS
notes: HCAb, heavy chain only, human IgG1 Fc; also called R1016P144G12
Turning to B2, the binding result in experiment [1] is reported as “binds”.

B3: PR007290 (antibody, human IgG1, V domains shown)
VH: EVQLVESGGGVVQPGRSLRLSCAASGFTFSDYYMSWFRQAPGKGLEWVSYISSSGTTIDYADSVKGRFTISRDNAKNSLYLQMNSLRAEDTAVYYCAREREEVAGTLDFDYWGQGTPVTVSS
notes: HCAb, heavy chain only, human IgG1 Fc; also called R1016P145C05
B3: the binding result in experiment [1] is “binds”.

B4: PR001774 (antibody, human IgG1, V domains shown)
VH: EVQLVESGGGLVQPGGSLRLSCAASGFTFSSFAMTWVRQAPEKGLEWVSTISGSGDTTYYADSVKGRFTISRDSSKNTLYLQMNSLRAEDSAVYFCAKEATAMASDYYYGVDVWGQGTTVTVSS
notes: HCAb, heavy chain only, human IgG1 Fc; also called 1016P0045F7
With B4, in experiment [1], the binding result was “binds”.

B5: PR001775 (antibody, human IgG1, V domains shown)
VH: EVQLLESGGGLVQSGGSLRLSCAASGFTFSSYAMSWVRQAPGKGLEWVSAISGSGGSTDYADSVKGRFTISRDNSTNTLYLQMNSLRAEDTAVYYCAKERAYDYSNYVDFDYWGQGTLVTVSS
notes: HCAb, heavy chain only, human IgG1 Fc; also called 1016P0046A9
In the case of B5, in experiment [1], the binding result was “binds”.

B6: PR001764 (antibody, human IgG1, V domains shown)
VH: EVQLLESGGGLVQPGGSLRLSCAASGFTFSSYAMSWVRQAPEKGLEWVSAISGGGGSTYYADSVKGRFTISRDNSKNTLYLQMDSLKAEDTAVYYCAKEGTTETDDYHYNMDVWGQGTTVTVSS
notes: HCAb, heavy chain only, human IgG1 Fc; also called 1016P0022E5
For B6, the EC50 in experiment [1] is less than 0.3 nM.

B7: PR004469 (antibody, human IgG1, V domains shown)
VH: EVQLLESGGGLVQPGGSLRLSCAASGFTFSNYAMSWFRQPPETGLKWVSSIDASGGDTYYADSVKGRFTISRDNSKNTLYLQMNSLRAEDTAVYYCAKEGSHGTDDSHYDVDVWGQGTTVTVSS
notes: HCAb, PTM variant of PR001838 (G53A), human IgG1
As for B7, in experiment [1], the binding result is listed as “binds”.

B8: PR001836 (antibody, human IgG1, V domains shown)
VH: EVQLLESGGGLVQPGGSLRLSCAASGFIFSNFAMTWVRQPPEKGLKWVSSINGSGFNTYYTDSVKGRFTISRDNSRNTLYLQMNRLTAEDTAVYFCAKEGSSETDDHYYNVDVWGQGTTVTVSS
notes: HCAb, heavy chain only, human IgG1 Fc; also called 1016P0020G4
Consider B8, for which, in experiment [1], the EC50 was less than 0.3 nM. In experiment [2], this molecule returned a dissociation constant (Kd) of 13.5 nM, a Response of 0.294, a koff of 0.00322 s⁻¹ and a kon of 239000 M⁻¹ s⁻¹. In experiment [3], this molecule registered an equilibrium dissociation constant (Kd) of 8.89 nM, a Response of 0.25, a koff of 0.00147 s⁻¹ and a kon of 165000 M⁻¹ s⁻¹.

B9: PR001830 (antibody, human IgG1, V domains shown)
VH: EVQLLESGGGLVQPGGSLRLSCTASGFTFSNYAMSWVRQAPEKGLEWVSSISGSGGSTFYADSVKGRFTISRDNSKNTLYLQMNSLRAEDTAVYFCAKEGSSETDDHYYNVDVWGQGTTVTVSS
notes: HCAb, heavy chain only, human IgG1 Fc; also called 1016P0014G8
Consider B9, for which the EC50 in experiment [1] is less than 0.3 nM. In experiment [2], the Kd was 24.9 nM, the Response stood at 0.307, the koff came to 0.00664 s⁻¹ and the kon stood at 266000 M⁻¹ s⁻¹. Also, in experiment [3], binding was characterised by a dissociation constant (Kd) of 18.1 nM, the Response was determined as 0.222, the koff was 0.00347 s⁻¹ and the kon was found to be 192000 M⁻¹ s⁻¹.

B10: PR001763 (antibody, human IgG1, V domains shown)
VH: EVQLLESGGGLVQPGGSLRLSCTASGFTFSNYAMSWVRQAPEKGLEWVSSISGSGGSTFYADSVKGRFTISRDNSKNTLYLQMNRLTAEDTAVYYCAKEGSNGTDDYHYDIDVWGQGTTVTVSS
notes: HCAb, heavy chain only, human IgG1 Fc; also called 1016P0016E9
Regarding B10, the binding result in experiment [1] is given as “binds”.

B11: PR001833 (antibody, human IgG1, V domains shown)
VH: EVQLLESGGGLVQPGGSLRLSCAASGFTFSSYAMSWVRQAPEKGLEWVSSISGSGGSTFYADSVKGRFTISRDNSKNTLYLQMNSLRAEDTAVYFCAKEGATETDDYHFNTDVWGQGTTVTVSS
notes: HCAb, heavy chain only, human IgG1 Fc; also called 1016P0016F8
B11: the EC50 in experiment [1] was less than 0.3 nM. In addition, in experiment [2], the Kd was 23.4 nM, the Response came to 0.311, the off-rate constant (koff) is 0.00506 s⁻¹ and the kon worked out at 216000 M⁻¹ s⁻¹. In experiment [3], this molecule had a Kd of 22.3 nM, a Response of 0.273, an off-rate (koff) of 0.00309 s⁻¹ and a kon of 139000 M⁻¹ s⁻¹.

B12: PR001776 (antibody, human IgG1, V domains shown)
VH: EVQLLESGGGLVQPGGSLRLSCAASGFTFSSYAMSWVRQAPEKGLEWVSAISSSGGSTYYADSVKGRFTISRDNSKNTLYLQMNSLRAEDTAVYYCAKDGVTTPSYYYYYDMDVWGQGTTVTVSS
notes: HCAb, heavy chain only, human IgG1 Fc; also called 1016P0049C7
Take B12: the binding result in experiment [1] was “binds”.

B13: PR001831 (antibody, human IgG1, V domains shown)
VH: EVQLVESGGGVIQPGGSLRLSCEASGFTFSSYAMSWVRQAPEKGLEWVSSISGSGDSTYYADSVKGRFTISRDNSKNTLYLQMNSLRAEDTAGYHCAKEGSNGTDDYHYDIDVWGQGTSVTVSS
notes: HCAb, heavy chain only, human IgG1 Fc; also called 1016P0015C8
For the molecule B13, the EC50 in experiment [1] is less than 0.3 nM.

B14: PR001768 (antibody, human IgG1, V domains shown)
VH: EVQLLESGGGLVQPGGSLRLSCAASGFTFSNYAMTWVRQAPGKGLEWVSSISGSGDSTYYADSVKGRFTISRDNSKNTLYLQMNSLRAEDTAVYYCAKEGTGTTSDYYYNVDVWGQGTTVTVSS
notes: HCAb, heavy chain only, human IgG1 Fc; also called 1016P0039B9
Turning to B14, the binding result in experiment [1] is listed as “binds”.

B15: PR007381 (antibody, human IgG1, V domains shown)
VH: EVQLLESGGGLVQPGGSLRLSCAASGFTFSNYAMSWVRQAPGKGLEWVSSIDASGGDTYYADSVKGRFTISRDNSKNTLYLQMNSLRAEDTAVYYCAKEGSHGTDDSHYDVDVWGQGTTVTVSS
notes: HCAb, variant of PR001838 (F37V, P40A, E42G, T43K, K46E, G53A), human IgG1
For B15, in experiment [1], the binding result is “binds”.

B16: PR001842 (antibody, human IgG1, V domains shown)
VH: EVQLLESGGGLVQPGGSLRLSCAASGFTFSSYAMSWGRQAPGKGLEWVSAISGSGGSTYYADSVKGRFTISRDNSKNTLYLHMNSLRAEDTAVYYCAKEKVATTGDYYYDMDVWGQGTTVTVSS
notes: HCAb, heavy chain only, human IgG1 Fc; also called 1016P0045A3
As to B16, the binding result in experiment [1] is recorded as “binds”.

B17: PR001781 (antibody, human IgG1, V domains shown)
VH: EVQLLESGGGLVQLGGSLRLSCAASGFTFSSYAMTWVRQAPEKGLEWVSSISGSGGNTYYADSVKGRFTISRDNSKNTLYLQMNSLRAEDTAVYYCAKERTGTTGDYYYNVDVWGQGTTVTVSS
notes: HCAb, heavy chain only, human IgG1 Fc; also called 1016P007F3
Consider B17, for which the binding result in experiment [1] is listed as “binds”.

B18: PR001837 (antibody, human IgG1, V domains shown)
VH: EVQLLESGGGLVQPGGSLRLSCEASGFTFSSYAMSWVRQAPEKGLEWVSSISGSGGSTFYADSVKGRFTISRDNSKNTLYLQMNSLRAEDTAVYYCAKEGTTETDDYHYNMDVWGQGTTVTVSS
notes: HCAb, heavy chain only, human IgG1 Fc; also called 1016P0024B10
B18: the binding result in experiment [1] was “binds”.

B19: PR001766 (antibody, human IgG1, V domains shown)
VH: EVQLLESGGGLVQPGGSLRLSCAASGFTFSSYAMSWGRQAPGKGLEWVSSISGSGGSTYYADSVKGRFTISRDNSKNTLYLQMNSLRAEDTAVYYCAKEKTGTTGDYYYDMDVWGQGTTVTVSS
notes: HCAb, heavy chain only, human IgG1 Fc; also called 1016P0034F10
Take B19: the binding result in experiment [1] was “binds”.

B20: PR001780 (antibody, human IgG1, V domains shown)
VH: EVQLLESGGGLIQPGGSLRLSCAASGFTFSSFAMTWVRQAPGKGLEWVSTISGSGDNTYYADSVKGRFTISRDNSKNTLYLQMNSLRAEDTAVYFCAKEDTAVASDYYYNIDVWGQGTTVTVSS
notes: HCAb, heavy chain only, human IgG1 Fc; also called 1016P0058D11
Turning to B20, in experiment [1], the binding result is reported as “binds”.

B21: PR001771 (antibody, human IgG1, V domains shown)
VH: EVQLLESGGGLVQPGGSLRLSCAASGFTFSNYAMTWVRQPPGKGLEWVSSISGSGGSTYYADSVKGRFTISRDNSKNTLYLQMNSLRAEDTAVYYCAKEGTGTTSDYYYNVDVWGQGTTVTVSS
notes: HCAb, heavy chain only, human IgG1 Fc; also called 1016P0042C5
As to B21, the binding result in experiment [1] was “binds”.

B22: PR001834 (antibody, human IgG1, V domains shown)
VH: EVQLLESGGGLVQPGGSLRLSCAASGFTFSGYAMTWVRQPPEKGLEWVSSISGSGNNTFYADSVKGRFTISRDNSKNTLYLQMNSLRAEDTAVYYCAKEGTTETDDYHYNMDVWGQGTTVTVSS
notes: HCAb, heavy chain only, human IgG1 Fc; also called 1016P0019C9
On to B22, for which the binding result in experiment [1] is given as “binds”.
